{"source": "patent US20120034254A1", "assay_in_all_cases": "SPR", "key": {"CD4": {"target": "CD4 (UniProt P01730)"}, "Full length Hxbc2 gp120": {"target": "Full length Hxbc2 gp120"}, "WT Hxbc2 core": {"target": "WT Hxbc2 core"}}}
{"substance": "Full length Hxbc2 gp120", "values": [{"measurement": "Kd", "setting": "CD4", "value": 6.29, "unit": "nM"}]}
{"substance": "WT Hxbc2 core", "values": [{"measurement": "Kd", "setting": "CD4", "value": 15.1, "unit": "nM"}]}
{"substance": "b12", "values": [{"measurement": "Kd", "setting": "Full length Hxbc2 gp120", "value": 2.63, "unit": "nM"}, {"measurement": "Kd", "setting": "WT Hxbc2 core", "value": 2.67, "unit": "nM"}]}
